Data on three substances can be found in patent US11673916B2, “Neuroprotective peptides and methods of their use” (University of Pittsburgh—Of the Commonwealth System of …, priority 2020, dated 2023).

The target of this assay is T1, Kv2.1 surface clusters (Rattus norvegicus, UniProt P15387).
T1 construct: expressed in transfected cells; host or cells: primary rat cortical neurons (E16-17 Sprague-Dawley), Lipofectamine 2000
T1 sequence (P15387 1-857): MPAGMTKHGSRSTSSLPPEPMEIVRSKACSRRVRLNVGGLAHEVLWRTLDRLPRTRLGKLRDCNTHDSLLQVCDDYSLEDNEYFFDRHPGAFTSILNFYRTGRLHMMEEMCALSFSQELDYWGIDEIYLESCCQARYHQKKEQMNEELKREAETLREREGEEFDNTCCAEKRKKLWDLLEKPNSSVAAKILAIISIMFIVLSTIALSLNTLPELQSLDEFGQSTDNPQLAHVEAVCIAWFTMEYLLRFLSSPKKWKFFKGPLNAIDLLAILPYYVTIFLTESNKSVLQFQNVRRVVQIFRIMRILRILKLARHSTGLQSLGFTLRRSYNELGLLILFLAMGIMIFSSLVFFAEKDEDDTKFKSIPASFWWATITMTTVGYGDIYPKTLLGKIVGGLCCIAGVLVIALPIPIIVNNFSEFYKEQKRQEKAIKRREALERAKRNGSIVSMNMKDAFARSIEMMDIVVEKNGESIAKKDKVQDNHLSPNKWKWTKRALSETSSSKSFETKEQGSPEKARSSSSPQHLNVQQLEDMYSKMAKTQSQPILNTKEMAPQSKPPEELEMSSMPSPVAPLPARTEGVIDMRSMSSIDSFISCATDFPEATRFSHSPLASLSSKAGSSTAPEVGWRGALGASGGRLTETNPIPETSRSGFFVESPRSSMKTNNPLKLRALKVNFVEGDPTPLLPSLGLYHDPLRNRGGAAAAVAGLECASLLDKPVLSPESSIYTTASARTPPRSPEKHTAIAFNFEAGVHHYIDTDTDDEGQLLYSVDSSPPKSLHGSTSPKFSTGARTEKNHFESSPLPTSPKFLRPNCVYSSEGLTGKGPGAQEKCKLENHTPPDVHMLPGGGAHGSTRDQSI
The experiment in a line: Kv2.1 surface cluster density in live cortical neurons co-transfected with Kv2.1-GFP and peptide-expressing plasmids. The class given is cell-based. The following applies: plasmid-driven expression, 24 h after transfection, mean+/-SEM (FIG. 1C). The protocol:
In vitro experiments utilized primary cortical neuronal cultures prepared from embryonic day 16-17 Sprague-Dawley rats of either sex in a protocol described previously (McCord et al., J Physiol (Lond). 592: 3511-3521, 2014). Timed-pregnant rats (Charles River Laboratories, Wilmington, Mass.) were sacrificed by CO2 inhalation. Embryonic cortices were dissociated with trypsin (0.6 mg/mL) and cells plated in sterile 6-well plates on poly-L-ornithine-coated glass coverslips at a density of 670,000 cells per well. Cytosine arabinoside (1-2 μM) was utilized to inhibit non-neuronal proliferation on day 14 in vitro (DIV); cultures were utilized at 21-25 DIV.
Transfections were performed with Lipofectamine 2000 (L2K; Invitrogen, Carlsbad, Calif.). Cortical neuronal cultures on glass coverslips were placed into wells containing 500 μL of Dulbecco's minimum essential medium with 2% HyClone bovine serum (D2C; Thermo Fisher Scientific, Waltham, Mass.). A mixture of 1.5 μg of total cDNA and 2 μL of L2K was prepared in 100 μL of Opti-MEM I (Life Technologies Corp., Grand Island, N.Y.) for each well and added. […]
To analyze Kv2.1 distribution in live primary cortical neurons, cells were transfected with both a tdTomato construct and a GFP-tagged Kv2.1 construct (O'Connell, et al., J Neurosci. 26: 9609-9618, 2006) and imaged on a Nikon A1+ confocal microscope (Nikon, Tokyo, Japan). […] For live images of transfected neurons, object count parameters were customized to define a Kv2.1 cluster as an area of high intensity GFP fluorescence (compared to background), measuring 0.05 μm^2 or larger (Schulien et al., J Physiol (Lond). 594: 2647-2659, 2016). Kv2.1 cluster density was calculated by normalizing the number of Kv2.1 clusters counted to the somatic area of each neuron (#Kv2.1 clusters/μm^2). […] In each neuron analyzed, two populations on Kv2.1-GFP expression were first noted—(a) highly localized signals of clustered Kv2.1 channels, and (b) diffuse background staining that represents freely-dispersed, conducting Kv2.1 channels on the plasma membrane. […]
On to “Kv2.2 CT: Kv2.2 channel C-terminal peptide expressed from plasmid pCMV-Kv2.2CT (EVIVDMKSTSSIDSFTSCATDFTETE)”, for which the “mean Kv2.1 surface cluster density” value was 0.07±0.01 #Kv2.1 clusters/μm^2 of neuronal soma.

“MKSTSDFSSIST [Sc-1, plasmid expressed scrambled control of DP-1 (pCMV-Sc-1)]”: the “mean Kv2.1 surface cluster density” value is recorded as 0.14±0.03 #Kv2.1 clusters/μm^2 of neuronal soma.

On to “MKSTSSIDSFTS [DP-1, plasmid expressed expanded declustering peptide (pCMV-DP-1)]”, for which the “mean Kv2.1 surface cluster density” value is on record as 0.04±0.01 #Kv2.1 clusters/μm^2 of neuronal soma.
